US12391762B2, “Methods and compositions relating to GLP1R variants” (Twist Bioscience Corporation, priority 2020, dated 2025)

System: CHO-parent cells
Assay: Flow cytometry binding assay on CHO-parent cells (background binding)
Set-up: species or system Chinese Hamster
Experimental: GLP-1R IgG clones were tested in a binding assay coupled to flow cytometry analysis as follows: FLAG-GLP-1R-GFP expressing CHO cells (CHO-GLP-1R) and CHO-parent cells were incubated with 100 nM IgG for 1 h on ice, washed three times and incubated with Alexa 647 conjugated goat-anti-human antibody (1:200) (Jackson ImmunoResearch Laboratories, 109-605-044) for 30 min on ice, followed by three washes, centrifuging to pellet the cells between each washing step. All incubations and washes were in buffer containing PBS+1% BSA. For titrations, IgG was serially diluted 1:3 starting from 100 nM down to 0.046 nM. Cells were analyzed by flow cytometry and hits (a hit is an IgG that specifically binds to CHO-GLP-1R) were identified by measuring the GFP signal against the Alexa 647 signal. Flow cytometry data of binding assays with 100 nM IgG are presented as dot plots. Analyses of binding assays with IgG titrations are presented as binding curves plotting IgG concentrations against MFI (mean fluorescence intensity).

B1: GLP1R221-084: GLP1R-221 variant, optimized from GLP1R-3 (antibody, V domains shown)
VH: QVQLVESGGGVVQPGRSLRLSCAASGFAFSNYGMHWVRQAPGKGLEWVAVISSDENNKYYADSVKGRFTISRDNSKNTLYLQMNSLRAEDTAVYYCAKHMSMQEGAVTGEMQAAKEFIAWLVKGRVRADLVGDAFDVWGQGTLVTVSS
VL: QSVLTQPPSVSAAPGQKVTISCSGSSSNIADNYVSWYQQLPGTAPKLLIYENNRRPSGIPDRFSGSKSGTSATLGITGLQTGDEADYYCGTWDVSLSVGMFGGGTKLTVL
B1 was tested, and the “Median RL1-H of Parent Singlets” value (Table 6C, GLP1R-221 variants) was 207 and the “Bmax CHO Parent” value (Table 6E, IgG titration) was 266.6.

B2: GLP1R222-056: GLP1R-222 variant, optimized from GLP1R-3 (antibody, V domains shown)
VH: QVQLVESGGGVVQPGRSLRLSCAASGFPFSSYAMHWVRQAPGKGLEWVAVISYDRSNKYYADSVKGRFTISRDNSKNTLYLQMNSLRAEDTAVYYCAKHMSMQEGAVTGYGQAAKEFIAWLVKGFVRADLVGDAFDVWGQGTLVTVSS
VL: QSVLTQPPSVSAAPGQKVTISCSGSSSNIGSNYISWYQQLPGTAPKLLIYDNDKRPAGIPDRFSGSKSGTSATLGITGLQTGDEADYYCGTWDTSLSVGEFGGGTKLTVL
In the case of B2, the “Median RL1-H of Parent Singlets” value (Table 6D, GLP1R-222 variants) is reported as 230 and the “Bmax CHO Parent” value (Table 6F, IgG titration) is reported as 237.5.

B3: GLP1R222-081: GLP1R-222 variant, optimized from GLP1R-3 (antibody, V domains shown)
VH: QVQLVESGGGVVQPGRSLRLSCAASGFTFDNYALHWVRQAPGKGLEWVALISYDAGNKYYADSVKGRFTISRDNSKNTLYLQMNSLRAEDTAVYYCAKHMSMQEGAVTGEGQAAKEFIAWLVKGFVRADLVGDAFDVWGQGTLVTVSS
VL: QSVLTQPPSVSAAPGQKVTISCSGSSSNIGSDYVSWYQQLPGTAPKLLIYDNNKRSSGIPDRFSGSKSGTSATLGITGLQTGDEADYYCGTWDESLRSWVFGGGTKLTVL
With B3 the “Median RL1-H of Parent Singlets” value (Table 6D, GLP1R-222 variants) was 260 and the “Bmax CHO Parent” value (Table 6F, IgG titration) was 243.4.

B4: GLP1R222-023: GLP1R-222 variant, optimized from GLP1R-3 (antibody, V domains shown)
VH: QVQLVESGGGVVQPGRSLRLSCAASGFSFSDYGMHWVRQAPGKGLEWVAFISYDANNKYYADSVKGRFTISRDNSKNTLYLQMNSLRAEDTAVYYCAKHMSMQEGAVTGEWQAAKEFIAWLVKGRVRADLVGDAFDVWGQGTLVTVSS
VL: QSVLTQPPSVSAAPGQKVTISCSGSSSNIGNNDVSWYQQLPGTAPKLLIYENTKRPSGIPDRFSGSKSGTSATLGITGLQTGDEADYYCGTWDAGLSTGVFGGGTKLTVL
B4 was tested, and the “Median RL1-H of Parent Singlets” value (Table 6D, GLP1R-222 variants) was 310, the “Bmax CHO Parent” value (Table 6F, IgG titration) was 237.9 and the EC50 (Table 6F, IgG titration) was 89.4 nM.

B5: GLP1R221-092: GLP1R-221 variant, optimized from GLP1R-3 (antibody, V domains shown)
VH: QVQLVESGGGVVQPGRSLRLSCAASGFIFNNYGMHWVRQAPGKGLEWVAFISYGGSNKYYADSVKGRFTISRDNSKNTLYLQMNSLRAEDTAVYYCAKHMSMQEGAVTGEGQAVKEFIAWLVKGRVRADLVGDAFDVWGQGTLVTVSS
VL: QSVLTQPPSVSAAPGQKVTISCSGTTSNIANNFVSWYQQLPGTAPKLLIYDNNKRPPGIPDRFSGSKSGTSATLGITGLQTGDEADYYCGTWDTSLSVGMFGGGTKLTVL
For B5, the “Median RL1-H of Parent Singlets” value (Table 6C, GLP1R-221 variants) was 326 and the “Bmax CHO Parent” value (Table 6E, IgG titration) was 291.2.

B6: GLP1R221-033: GLP1R-221 variant, optimized from GLP1R-3 (antibody, V domains shown)
VH: QVQLVESGGGVVQPGRSLRLSCAASGFSFSNYAMHWVRQAPGKGLEWVAVISHDRSNKYYADSVKGRFTISRDNSKNTLYLQMNSLRAEDTAVYYCAKHMSMQEGAVTGEGQAAKDFIAWLVKGRVRADLVGDAFDVWGQGTLVTVSS
VL: QSVLTQPPSVSAAPGQKVTISCSGSSSNIGNEYVSWYQQLPGTAPKLLIYDNNKRVSGIPDRFSGSKSGTSATLGITGLQTGDEADYYCATWDTSLNVGVFGGGTKLTVL
With B6 the “Median RL1-H of Parent Singlets” value (Table 6C, GLP1R-221 variants) was 236 and the “Bmax CHO Parent” value (Table 6E, IgG titration) was 146.

B7: GLP1R222-014: GLP1R-222 variant, optimized from GLP1R-3 (antibody, V domains shown)
VH: QVQLVESGGGVVQPGRSLRLSCAASGFAFSNYGMHWVRQAPGKGLEWVSFISYDESNKYYADSVKGRFTISRDNSKNTLYLQMNNLRAEDTAVYYCAKHMSMQEGAVTGEWQAAKEFIAWLVKGRVRADLVGDAFDVWGQGTLVTVSS
VL: QSVLTQPPSVSAAPGQKVTISCSGSSSNIGNHDVSWYQQLPGTAPKLLIYDNNKRHSGIPDRFSGSKSGTSATLGITGLQTGDEADYYCGTWDTSLSAGVFGGGTKLTVL
With B7 the “Median RL1-H of Parent Singlets” value (Table 6D, GLP1R-222 variants) was 299 and the “Bmax CHO Parent” value (Table 6F, IgG titration) was 336.4.

B8: GLP1R221-076: GLP1R-221 variant, optimized from GLP1R-3 (antibody, V domains shown)
VH: QVQLVESGGGVVQPGRSLRLSCAASGFTFNNYPMHWVRQAPGKGLEWVAVISYDETNKYYADSVKGRFTISRDNSKNTLYLQMNSLRAEDTAVYYCAKHMSMQEGAVTGEGQAAKEFIAWLVKGIVRADLVGDAFDVWGQGTLVTVSS
VL: QSVLTQPPSVSAAPGQKVTISCSGTSSNIGNNDVSWYQQLPGTAPKLLIYENNKRHSGIPDRFSGSKSGTSATLGITGLQTGDEADYYCLTWDHSLTAYVFGGGTKLTVL
For B8, the “Median RL1-H of Parent Singlets” value (Table 6C, GLP1R-221 variants) was 316 and the “Bmax CHO Parent” value (Table 6E, IgG titration) was 183.2.

B9: GLP1R221-017: GLP1R-221 variant, optimized from GLP1R-3 (antibody, V domains shown)
VH: QVQLVESGGGVVQPGRSLRLSCAASGFTFSDYGVHWVRQAPGKGLEWVAFISYDESNKYYADSVKGRFTISRDNSKNTLYLQMNSLRAEDTAVYYCAKHMSMQEGAVTGEYQAAKEFIAWLVKGRVRADLVGDAFDVWGQGTLVTVSS
VL: QSVLTQPPSVSAAPGQKVTISCSGSSSNIGNTYVSWYQQLPGTAPKLLIYDDYKRPSGIPDRFSGSKSGTSATLGITGLQTGDEADYYCATWDATLNTGVFGGGTKLTVL
In the case of B9, the “Median RL1-H of Parent Singlets” value (Table 6C, GLP1R-221 variants) is reported as 162 and the “Bmax CHO Parent” value (Table 6E, IgG titration) is reported as 228.7.

B10: GLP1R221-075: GLP1R-221 variant, optimized from GLP1R-3 (antibody, V domains shown)
VH: QVQLVESGGGVVQPGRSLRLSCAASGFTFSNYPMHWVRQAPGKGLEWVAVISYDETNKYYADSVKGRFTISRDNSKNTLYLQMNSLRAEDTAVYYCAKHMSMQEGAVTGEGQAAKEFIAWLVKGIVRADLVGDAFDVWGQGTLVTVSS
VL: QSVLTQPPSVSAAPGQKVTISCSGSGSNIGNNDVSWYQQLPGTAPKLLIYDNDKRPAGIPDRFSGSKSGTSATLGITGLQTGDEADYYCGTWDTSLSNYVFGGGTKLTVL
B10 was tested, and the “Median RL1-H of Parent Singlets” value (Table 6C, GLP1R-221 variants) was 206 and the “Bmax CHO Parent” value (Table 6E, IgG titration) was 234.

B11: GLP1R221-034: GLP1R-221 variant, optimized from GLP1R-3 (antibody, V domains shown)
VH: QVQLVESGGGVVQPGRSLRLSCAASGFPFSNYGMHWVRQAPGKGLEWVAVISHDRSNKYYADSVKGRFTISRDNSKNTLYLQMNSLRAEDTAVYYCAKHMSMQEGAVTGEGQAVKEFIAWLVKGRVRADLVGDAFDVWGQGTLVTVSS
VL: QSVLTQPPSVSAAPGQKVTISCSGSSSNIGNNPVSWYQQLPGTAPKLLIYENDNRPSGIPDRFSGSKSGTSATLGITGLQTGDEADYYCATWDRGLSTGVFGGGTKLTVL
In the case of B11, the “Median RL1-H of Parent Singlets” value (Table 6C, GLP1R-221 variants) is reported as 314 and the “Bmax CHO Parent” value (Table 6E, IgG titration) is reported as 279.8.

B12: GLP1R221-065: GLP1R-221 variant, optimized from GLP1R-3 (antibody, V domains shown)
VH: QVQLVESGGGVVQPGRSLRLSCAASGFTFNNYAMHWVRQAPGKGLEWVAVISYDRSNEYYADSVKGRFTISRDNSKNTLYLQMNSLRAEDTAVYYCAKHMSMQEGAVTGDGQAAKEFIAWLVKGRVRADLVGDAFDVWGQGTLVTVSS
VL: QSVLTQPPSVSAAPGQKVTISCSGTTSNIANNFVSWYQQLPGTAPKLLIYDHNKRPSGIPDRFSGSKSGTSATLGITGLQTGDEADYYCGTWDTSLSAGAFGGGTKLTVL
In the case of B12, the “Median RL1-H of Parent Singlets” value (Table 6C, GLP1R-221 variants) is reported as 298 and the “Bmax CHO Parent” value (Table 6E, IgG titration) is reported as 261.9.

B13: GLP1R221-066: GLP1R-221 variant, optimized from GLP1R-3 (antibody, V domains shown)
VH: QVQLVESGGGVVQPGRSLRLSCAASGFTFNNYAMHWVRQAPGKGLEWVAVISYDRSNEYYADSVKGRFTISRDNSKNTLYLQMNSLRAEDTAVYYCAKHMSMQEGAVTGEGQAIKEFIAWLVKGRVRADLVGDAFDVWGQGTLVTVSS
VL: QSVLTQPPSVSAAPGQKVTISCSGSSSNIGNNYLSWYQQLPGTAPKLLIYENNKRPSGIPDRFSGSKSGTSATLGITGLQTGDEADYYCGIWDRSLSAWVFGGGTKLTVL
For B13, the “Median RL1-H of Parent Singlets” value (Table 6C, GLP1R-221 variants) was 240 and the “Bmax CHO Parent” value (Table 6E, IgG titration) was 112.1.

B14: GLP1R222-073: GLP1R-222 variant, optimized from GLP1R-3 (antibody, V domains shown)
VH: QVQLVESGGGVVQPGRSLRLSCAASGFTFRDYGMHWVRQAPGKGLEWVAFIRYDEINKYYADSVKGRFTISRDNSKNTLYLQMNSLRAEDTAVYYCAKHMSMQEGAVTGEGQAAKEFIAWLVGGRVRADLVGDAFDVWGQGTLVTVSS
VL: QSVLTQPPSVSAAPGQKVTISCSGSGSNIGNNDVSWYQQLPGTAPKLLIYDNNKRASGIPDRFSGSKSGTSATLGITGLQTGDEADYYCGTWDRGPNTGVFGGGTKLTVL
In the case of B14, the “Median RL1-H of Parent Singlets” value (Table 6D, GLP1R-222 variants) is reported as 229 and the “Bmax CHO Parent” value (Table 6F, IgG titration) is reported as 228.4.

B15: GLP1R221-009: GLP1R-221 variant, optimized from GLP1R-3 (antibody, V domains shown)
VH: QVQLVESGGGVVQPGRSLRLSCAASGFIFSNYGMHWVRQAPGKGLEWVAVISDEGSNKYYADSVKGRFTISRDNSKNTLYLQMNSLRAEDTAVYYCAKHMSMQEGAVTGAGQAAKEFIAWLVKGRVRADLVGDAFDVWGQGTLVTVSS
VL: QSVLTQPPSVSAAPGQKVTISCSGSSSNIGNQYVSWYQQLPGTAPKLLIYDDHKRPSGIPDRFSGSKSGTSATLGITGLQTGDEADYYCGTWDTSLSVGEFGGGTKLTVL
With B15 the “Median RL1-H of Parent Singlets” value (Table 6C, GLP1R-221 variants) was 197 and the “Bmax CHO Parent” value (Table 6E, IgG titration) was 267.4.
